Reference: the supplement of paper PMC9112550, “Optimization of the antimicrobial peptide Bac7 by deep mutational scanning” (BMC Biology, 2022)

System: Escherichia coli TOP10
Assay: shrunken log2 fold change of peptide-encoding DNA abundance (4.5 h post-induction vs induction); higher = less antimicrobial activity (less host growth inhibition)
Conditions: time post-induction: 4.5 h; library: site-saturation at positions 5, 18, 19, 20
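Further: peptides expressed intracellularly from a pBAD plasmid library in pooled LB shake-flask culture, induced with 0.3% L-arabinose, DNA abundance read by NGS, three biological replicates, DESeq2 with apeglm shrinkage.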

RRIRLRPPRLPRPRPRPDRMPRP and RRIRDRPPRLPRPRPRPITEPRP are within 0.2 log units of each other in “shrunken log2 fold change” value: -0.0414 for the first, -0.0351 for the second.

RRIRFRPPRLPRPRPRPKKHPRP and RRIRARPPRLPRPRPRPSYWPRP are within 0.2 log units of each other in “shrunken log2 fold change” value: -0.264 for the first, -0.184 for the second.

First: RRIRIRPPRLPRPRPRPKTTPRP
Second: RRIRYRPPRLPRPRPRPGRRPRP
The “shrunken log2 fold change” value of the first is lower: -0.301 for the first, 2.15 for the second.

Compared with RRIRKRPPRLPRPRPRPCDEPRP, RRIRWRPPRLPRPRPRPEYWPRP is higher in “shrunken log2 fold change” value: 0.121 for the first, 0.388 for the second.

Going from RRIRMRPPRLPRPRPRPPCQPRP to RRIRQRPPRLPRPRPRPWTHPRP, the “shrunken log2 fold change” value falls from 0.505 to 0.00902.

First: RRIRDRPPRLPRPRPRPWGLPRP
Second: RRIRYRPPRLPRPRPRPDNNPRP
The “shrunken log2 fold change” value of the first is higher: 0.0419 for the first, -0.189 for the second.

Compared with RRIRKRPPRLPRPRPRPTVQPRP, RRIRVRPPRLPRPRPRPNADPRP is lower in “shrunken log2 fold change” value: 0.777 for the first, -0.00824 for the second.

First: RRIRARPPRLPRPRPRPRVTPRP
Second: RRIRVRPPRLPRPRPRPWMTPRP
The “shrunken log2 fold change” value of the first is higher: 0.462 for the first, -0.0714 for the second.

Compared with RRIRHRPPRLPRPRPRPLYPPRP, RRIRYRPPRLPRPRPRPANKPRP is higher in “shrunken log2 fold change” value: -0.804 for the first, -0.278 for the second.

Going from RRIRLRPPRLPRPRPRPTDRPRP to RRIRMRPPRLPRPRPRPHIQPRP, the “shrunken log2 fold change” value falls from -0.00223 to -0.421.

Compared with RRIRLRPPRLPRPRPRPDFPPRP, RRIRHRPPRLPRPRPRPGHSPRP is lower in “shrunken log2 fold change” value: 0.24 for the first, -0.27 for the second.

First: RRIRSRPPRLPRPRPRPQGEPRP
Second: RRIRSRPPRLPRPRPRPKRKPRP
The “shrunken log2 fold change” value of the first is lower: -0.0953 for the first, 0.458 for the second.

First: RRIRTRPPRLPRPRPRPRYNPRP
Second: RRIRKRPPRLPRPRPRPPSDPRP
The “shrunken log2 fold change” value of the first is lower: -0.712 for the first, 0.75 for the second.

RRIRRRPPRLPRPRPRPVGIPRP and RRIRWRPPRLPRPRPRPVGVPRP are within 0.2 log units of each other in “shrunken log2 fold change” value: 0.12 for the first, 0.297 for the second.

Going from RRIRERPPRLPRPRPRPFLVPRP to RRIRMRPPRLPRPRPRPMRPPRP, the “shrunken log2 fold change” value rises from -0.119 to 1.79.

RRIRPRPPRLPRPRPRPGYFPRP and RRIRERPPRLPRPRPRPWRNPRP are within 0.2 log units of each other in “shrunken log2 fold change” value: -0.0323 for the first, 0.0891 for the second.

RRIRRRPPRLPRPRPRPLDSPRP and RRIRQRPPRLPRPRPRPWKGPRP are within 0.2 log units of each other in “shrunken log2 fold change” value: -0.106 for the first, 0.013 for the second.

RRIRLRPPRLPRPRPRPWDEPRP and RRIRRRPPRLPRPRPRPAKQPRP are within 0.2 log units of each other in “shrunken log2 fold change” value: 0.066 for the first, 0.136 for the second.

RRIRLRPPRLPRPRPRPFVCPRP and RRIRLRPPRLPRPRPRPDDPPRP are within 0.2 log units of each other in “shrunken log2 fold change” value: -0.0489 for the first, 0.00153 for the second.

Compared with RRIRPRPPRLPRPRPRPGDWPRP, RRIRQRPPRLPRPRPRPYFAPRP is lower in “shrunken log2 fold change” value: 0.432 for the first, -0.292 for the second.

Compared with RRIRVRPPRLPRPRPRPRMYPRP, RRIRLRPPRLPRPRPRPETFPRP is higher in “shrunken log2 fold change” value: -0.882 for the first, 0.0211 for the second.

Compared with RRIRRRPPRLPRPRPRPRLVPRP, RRIRTRPPRLPRPRPRPVDRPRP is lower in “shrunken log2 fold change” value: 0.527 for the first, 0.141 for the second.

RRIRDRPPRLPRPRPRPIHTPRP and RRIRYRPPRLPRPRPRPAMCPRP are within 0.2 log units of each other in “shrunken log2 fold change” value: -0.159 for the first, 0.00292 for the second.

RRIRARPPRLPRPRPRPSKMPRP and RRIRQRPPRLPRPRPRPGFNPRP are within 0.2 log units of each other in “shrunken log2 fold change” value: -0.00925 for the first, -0.119 for the second.

Compared with RRIRKRPPRLPRPRPRPATDPRP, RRIRVRPPRLPRPRPRPDHIPRP is lower in “shrunken log2 fold change” value: 0.00132 for the first, -0.206 for the second.

RRIRARPPRLPRPRPRPFHKPRP and RRIRKRPPRLPRPRPRPDHPPRP are within 0.2 log units of each other in “shrunken log2 fold change” value: -0.148 for the first, 0.0127 for the second.

Going from RRIRDRPPRLPRPRPRPKFQPRP to RRIRMRPPRLPRPRPRPNNIPRP, the “shrunken log2 fold change” value falls from 0.00463 to -0.564.

First: RRIRSRPPRLPRPRPRPGAIPRP
Second: RRIRERPPRLPRPRPRPSTDPRP
The “shrunken log2 fold change” value of the first is higher: 0.187 for the first, -0.332 for the second.

Compared with RRIRRRPPRLPRPRPRPAIVPRP, RRIRTRPPRLPRPRPRPIQNPRP is lower in “shrunken log2 fold change” value: 0.275 for the first, -0.147 for the second.

RRIRDRPPRLPRPRPRPGNTPRP and RRIRPRPPRLPRPRPRPICFPRP are within 0.2 log units of each other in “shrunken log2 fold change” value: -0.165 for the first, -0.189 for the second.

RRIRFRPPRLPRPRPRPIRSPRP and RRIRARPPRLPRPRPRPWEDPRP are within 0.2 log units of each other in “shrunken log2 fold change” value: -0.0101 for the first, -0.015 for the second.

Going from RRIRLRPPRLPRPRPRPEGFPRP to RRIRNRPPRLPRPRPRPQVLPRP, the “shrunken log2 fold change” value falls from 0.604 to -0.0163.

RRIRGRPPRLPRPRPRPCYAPRP and RRIRTRPPRLPRPRPRPQDPPRP are within 0.2 log units of each other in “shrunken log2 fold change” value: 0.128 for the first, 0.167 for the second.

Compared with RRIRARPPRLPRPRPRPYKHPRP, RRIRTRPPRLPRPRPRPRLTPRP is higher in “shrunken log2 fold change” value: -0.881 for the first, -0.00933 for the second.

First: RRIRMRPPRLPRPRPRPCDPPRP
Second: RRIRFRPPRLPRPRPRPSQYPRP
The “shrunken log2 fold change” value of the first is higher: -0.0166 for the first, -0.292 for the second.

RRIRGRPPRLPRPRPRPGKCPRP and RRIRGRPPRLPRPRPRPWQSPRP are within 0.2 log units of each other in “shrunken log2 fold change” value: -0.0229 for the first, 0.161 for the second.

RRIRKRPPRLPRPRPRPFYGPRP and RRIRSRPPRLPRPRPRPLNEPRP are within 0.2 log units of each other in “shrunken log2 fold change” value: -0.0306 for the first, -0.177 for the second.

First: RRIRGRPPRLPRPRPRPPRSPRP
Second: RRIRHRPPRLPRPRPRPFQHPRP
The “shrunken log2 fold change” value of the first is higher: 1.19 for the first, -0.0182 for the second.

Compared with RRIRIRPPRLPRPRPRPEANPRP, RRIRMRPPRLPRPRPRPDTNPRP is higher in “shrunken log2 fold change” value: -0.00444 for the first, 1.3 for the second.

Compared with RRIRPRPPRLPRPRPRPDFIPRP, RRIRNRPPRLPRPRPRPWDVPRP is higher in “shrunken log2 fold change” value: -0.233 for the first, -0.0115 for the second.

First: RRIRRRPPRLPRPRPRPSNKPRP
Second: RRIRYRPPRLPRPRPRPYFMPRP
The “shrunken log2 fold change” value of the first is higher: -0.101 for the first, -1.17 for the second.

First: RRIRVRPPRLPRPRPRPWEQPRP
Second: RRIRVRPPRLPRPRPRPTYAPRP
The “shrunken log2 fold change” value of the first is lower: -0.355 for the first, 0.141 for the second.

First: RRIRIRPPRLPRPRPRPAFQPRP
Second: RRIRYRPPRLPRPRPRPVSTPRP
The “shrunken log2 fold change” value of the first is higher: 0.107 for the first, -0.511 for the second.

RRIRVRPPRLPRPRPRPSIQPRP and RRIRTRPPRLPRPRPRPVDHPRP are within 0.2 log units of each other in “shrunken log2 fold change” value: -0.321 for the first, -0.216 for the second.

RRIRGRPPRLPRPRPRPCRLPRP and RRIRTRPPRLPRPRPRPRMYPRP are within 0.2 log units of each other in “shrunken log2 fold change” value: 0.123 for the first, 0.0541 for the second.

RRIRQRPPRLPRPRPRPGYVPRP and RRIRFRPPRLPRPRPRPKMEPRP are within 0.2 log units of each other in “shrunken log2 fold change” value: -0.116 for the first, -0.028 for the second.

RRIRVRPPRLPRPRPRPNPAPRP and RRIRTRPPRLPRPRPRPPTHPRP are within 0.2 log units of each other in “shrunken log2 fold change” value: 0.31 for the first, 0.176 for the second.

RRIRERPPRLPRPRPRPKKRPRP and RRIRTRPPRLPRPRPRPDQQPRP are within 0.2 log units of each other in “shrunken log2 fold change” value: 0.0479 for the first, -0.0173 for the second.

Going from RRIRKRPPRLPRPRPRPFGRPRP to RRIRMRPPRLPRPRPRPNSWPRP, the “shrunken log2 fold change” value rises from -0.209 to 0.122.

Compared with RRIRTRPPRLPRPRPRPQLPPRP, RRIRQRPPRLPRPRPRPMLYPRP is lower in “shrunken log2 fold change” value: 0.107 for the first, -0.282 for the second.

RRIRHRPPRLPRPRPRPEVGPRP and RRIRIRPPRLPRPRPRPQAQPRP are within 0.2 log units of each other in “shrunken log2 fold change” value: 0.0518 for the first, -0.108 for the second.

Compared with RRIRHRPPRLPRPRPRPQHDPRP, RRIRYRPPRLPRPRPRPTKKPRP is higher in “shrunken log2 fold change” value: -0.281 for the first, 0.113 for the second.

Compared with RRIRHRPPRLPRPRPRPKSHPRP, RRIRRRPPRLPRPRPRPQVTPRP is lower in “shrunken log2 fold change” value: 0.77 for the first, -0.0275 for the second.

RRIRHRPPRLPRPRPRPGIDPRP and RRIRQRPPRLPRPRPRPKHWPRP are within 0.2 log units of each other in “shrunken log2 fold change” value: -0.0302 for the first, 0.0984 for the second.

In the case of RRIRNRPPRLPRPRPRPQRVPRP, the “shrunken log2 fold change” value is reported as 0.399.
